Reference: US20150098955A1 (VIELA BIO, published 2015)

T1: Murine CD40L (form not stated) (murine, UniProt P27548 112-260, limits assumed)
T1 construct: also called MuCD40L
T1 sequence (looked up): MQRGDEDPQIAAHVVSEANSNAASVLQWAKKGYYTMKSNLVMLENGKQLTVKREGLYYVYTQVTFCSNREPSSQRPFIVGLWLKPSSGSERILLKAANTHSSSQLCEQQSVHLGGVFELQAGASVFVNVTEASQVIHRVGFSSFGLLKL


Legend:
[1] = molecular target: T1, Murine CD40L (form not stated); experiment: biosensor competition: inhibition of murine CD40L binding to immobilized murine CD40 receptor
[2] = molecular target: Murine MegaCD40L (Axxora, cat. ALX522120) (murine) (UniProt P27548); experiment: cell-based or functional assay
[3] = molecular target: Murine CD40L on cells (D10.G4 / D10G4.1 cells; activated murine T cells) (murine) (UniProt P27548); experiment: cell-based or functional assay
[4] = molecular target: T1, Murine CD40L (form not stated); experiment: method not stated (figure legend)

IC50 [1] [nM]	IC50, neutralization of murine CD40L-induced NFκB activity (luciferase reporter cells) [2] [nM]	IC50, inhibition of CD86 up regulation on CD19+ B cells (PBMC stimulated with D10.G4 cells) [3] [nM]	fold increase in potency in the PBMC assay over M13 [3] [fold]	fold affinity improvement over M13 [4] [fold]	Binder
71	–	–	–	–	Clone M13 (murine CD40L-specific Tn3 scaffold) (designed binder, also called monovalent M13) IEVKDVTDTTALITWHDAFGYDFGCELTYGIKDVPGDRTTIDLPDHFHNYSIGNLKPDTEYEVSLICANDHGFDSNPAKETFTT
–	1.6	1.5	20	~20	Clone M31 (affinity optimized variant of M13, murine CD40L-specific) (designed binder) IEVKDVTDTTALITWHDPSGYDFWCELTYGIKDVPGDRTTIDLPDHFHNYSIGNLKPDTEYEVSLICANDHGFDSYPAKETFTT
